# Assay: soluble on expression in E. coli; label from the status in PepcDB or PDB records
row,Sequence,soluble on expression in E. coli
1,MGSDKIHHHHHHMQALERDYGHGDEVASHCHAEDQLIYAASGVMRVSSEGGSWVIPGGHALWMPAGVSHAIRMKGVVCMRTLLLDAHIERCQVIVVSGLLRELILAASRVLNLRDGAHARALILYELAAARRIDAFVPTPQHARLRAWCERFLQDPAQDLTLEQCGAQLNMSARSVARLFQREVGMSYGQWRARARVMLSQQCLADGKPILNVALEHGYQSASAFTAMFKRILGHAPSDWQNGTAREY,not soluble
2,MEKKKVAEWLAQGSIAVPKLLLGHYKQLGLGEGELVLLLHMQSFFEEGVLFPTPAELAERMTVSAAECMEMVRRLLQKGMIAIEEHTDEQGIRNEKYTLEPLWEKLVHHLYTQAAQQGELGRQEEEES,soluble
3,MAKKVKVITDPEVIKVMLEDTRRKILKLLRNKEMTISQLSEILGKTPQTIYHHIEKLKEAGLVEVKRTEMKGNLVEKYYGRTADVFYINLYLGDEELRYIARSRLKTKIDIFKRLGYQFEENELLNIMDRMSQKEFDATVRISKYIEEKEDALKDFSNEDIIHAIEWLSTAELARDEEYLELLKRLGSILKR,soluble
4,MRETIPIKYIDTIEINKLSIQDLEDLSSCKYKLLSAYLIGKIPANKILDADELEIYHNERTKKILAKAIKARKLVIVLKATRLCNLRCTYCHSWAEGPNQTILFSTLIHIVRQILAIPNVNRFEFVWHGGEVTLLKPAFFKKLIWLQEQFKRPEQYITNTMQSNIVNISDEWLIFIKGIGMNVGISLDGIPAVNDKRRVDFRGRGTSDRIAKGIKKLQKYDILYGALIVVDREVYQTDMREMLDYFILIELNGIEFLNIVPDNRLTAGEDIGNNFISYAEFIKFLSALFVIWIKGYREKIHIAIFEDFISVLEHPEKKLSACYWSGNCSQEIITLEPNGDVSPCDKYRGDAGSIYGSLLKTDLAGLLTQSSHNQQAIDEEVAATRKMQHCEWFSICHGGCPHDRVINRRHTKGYNDECCGTGKLLATIKAYLADIR,not soluble
5,MRETRMVYPVFPGETNHYGTLFGGTVLAWMDQAAFVAATRHARKKVVTVHADAVDFKRPVPLGAIVELVARLKEVGRTSMRVEVEMWVEPVKEGEEAYLAARGGFVLVAVDERGRPSPVPPLEGGEAHAPHGP,soluble
6,MTEMAKGSVTHQQLIALLSQEGANFRVVTHEAVGKCEAVSEIRGTALGQGAKALVCKVKGNGVNQHVLAILAADQQADLSQLASHIGGLRASLASPAEVDELTGCVFGAIPPFSFHPKLKLVADPLLFERFDEIAFNAGMLDKSVILKTADYLRIAQPELVNFRRTA,not soluble
7,TVGILWVNWDSRVRYANRAVESMLGYAPGQVVERPLIDFEPDLHMDRWLNLWKNARSSEDSAQVFETHCLRADGSLLPADVSLSFLRFR,not soluble
8,MAHHHHHHMQSVLPYTTNPAQIGSIEKLKLINPSSAAATGPYVNVRDPKLVVGGLLHNWDAEAAHALLNAPKSVQTWDLSWTEDETNWEERVHRCTYPEEVEDLLPAKWIGYRVQSDVDETLARVCKLCTALVDRLVSLSQGNNANVSTAKWRQRQALYDRLGAVMELLEASVGEAIPILKLKDPEFIQNCWRQMQDDERVEIISVLGTKEYD,soluble
9,MSQQVTMSFSVVPQAKTKDVYSVVDKAIEVVQQSGVRYEVGAMETTLEGELDVLLDVVKRAQQACVDAGAEEVITSIKIHYRPSTGVTIDEKVWKYRDEYAKPEAI,soluble
10,SIETTKGGSGSYPIKTIVVLVQENRSFDHTLGWFKELNREIDGVTKSDPKSNTVSSSDTNSLRVVFGDQSQYVNPDPGHSIQDIYEQVFGKPWDSGKPDPNPGHPNMSGFAQNAERNKKGMSSAVMNGFKPNALPVYKELVQNFAICDRWFASVPASTQPNRLYVHSATSHGATSNDKKLLLEGFPQKTIFESLDEAGFSFGIYYQFPPSTLFYRNLRKLKYLTHFHQYGIQFKKDCKEGKLPNYVVVEQRWFDLLSTPANDDHPSHDVSEGQKLVKEVYEALRSSPQWNEILFIITYDEHGGFYDHVPTPVDGVPNPDGILGPPPYNFEFNRLGVRVPTFFISPWIEPGTVIHGPNGPYPRSQYEHSSIPATVKTIFKLKDFLSKRDSWAGTFESVITRDSPRQDCPETLSTPIKLRGTMAKENAQLSEFQEDLVIMAAGLKGDYKNEELIHKLCKETCVADASKYVTNAFEKFLEESRKARDRGCDENDIVYCVDDDDDHVVIPPQSHSEASNAAAQPKTQTSFFNKLFSCFIRHD,soluble
11,MKNSLCNSVSSVVKKLLEYGEDGTPVYVNELTALNQELRNLCADLLLQKGESPEEEAEILVTLFKGYDTMLFNFSSENEQVIQELLDRSMTVLEKLPASVLKCQLLLECFEQTGDEELIREAKKNIERVI,soluble
12,MVPCWNHGNITRSKAEELLSRTGKDGSFLVRASESISRAYALCVLYRNCVYTYRILPNEDDKFTVQASEGVSMRFFTKLDQLIEFYKKENMGLVTHLQYPVPLEEEDTGDDPEEDTVESVVSPPELPPRNIPLTASSCEAKEVPFSNENPRATETSRPSLSETLFQRLQSMDTSGLPEEHLKAIQDYLSTQLAQDSEFVKTGSSSLPHLKKLTTLLCKELYGEVIRTLPSLESLQRLFDQQLSPGLRPRPQVKG,soluble
13,ANSVQQQLEALEKSSGGRLGVALINTADNSQILYRADERFAMCSTSKVMAAAAVLKQSESDKHLLNQRVEIKKSDLVNYNPIAEKHVNGTMTLAELGAAALQYSDNTAMNKLIAHLGGPDKVTAFARSLGDETFRLDRTAPTLNTAIPGDPRDTTTPLAMAQTLKNLTLGKALAETQRAQLVTWLKGNTTGSASIRAGLPKSWVVGDKTGSGDYGTTNDIAVIWPENHAPLVLVTYFTQPEQKAERRRDILAAAAKIVTHGF,soluble
14,MSGLHILAFGAHADDVEIGMAGTIAKYTKQGYEVGICDLTEADLSSNGTIELRKEEAKVAARIMGVKTRLNLAMPDRGLYMKEEYIREIVKVIRTYKPKLVFAPYYEDRHPDHANCAKLVEEAIFSAGIRKYMPELSPHRVESFYNYMINGFHKPNFCIDISEYLSIKVEALEAYESQFSTGSDGVKTPLTEGYVETVIAREKMFGKEVGVLYAEGFMSKKPVLLHADLLGGCKLGHHHHHH,soluble
15,MPRFSNKTVIITGSSNGIGRTTAILFAQEGANVTITGRSSERLEETRQIILKSGVSEKQVNSVVADVTTEDGQDQIINSTLKQFGKIDVLVNNAGAAIPDAFGTTGTDQGIDIYHKTLKLNLQAVIEMTKKVKPHLVASKGEIVNVSSIVAGPQAQPDFLYYAIAKAALDQYTRSTAIDLAKFGIRVNSVSPGMVETGFTNAMGMPDQASQKFYNFMASHKECIPIGAAGKPEHIANIILFLADRNLSFYILGQSIVADGGTSLVMGTQAHDVMSIMSSH,soluble
16,SGLRKMAQPSGLVEPCIVRVSYGNNVLNGLWLGDEVICPRHVIASDTTRVINYENEMSSVRLHNFSVSKNNVFLGVVSARYKGVNLVLKVNQVNPNTPEHKFKSIKAGESFNILACYEGCPGSVYGVNMRSQGTIKGSFIAGTCGSVGYVLENGILYFVYMHHLELGNGSHVGSNFEGEMYGGYEDQPSMQLEGTNVMSSDNVVAFLYAALINGERWFVTNTSMSLESYNTWAKTNSFTELSSTDAFSMLAAKTGQSVEKLLDSIVRLNKGFGGRTILSYGSLCDEFTPTEVIRQMYGVNLQ,soluble
17,MSDVPHLRFPEFSGEWEEHTLSEYLEFKNGLNPDAKRIGSGLPFISVMDILSEGVINYDNIRGKVNATEKEIECFGVKDGDLLFQRSSETLEDVGRANVYMDNRTAIYGGFVIRGRKIGNYDPLFFKYLLATPLARKRTCRMGAGAQHFNIGQEGLSKISLYFPSIEEQRKIAEFLSLIDERIATQNKIIEDLKKLKSAISLNVLHSDKWEQFKIKDIAQIGRGRVISSIEIGQQKSPTYPVYSSQTSNDGIMGYLDDYMFEGEYISWTTDGANAGTVFYRNGKFNCTNVCGLLKLRKEFDTHFVSLVLAEATKKYVSINLANPKLMNNTMGNIQIRLPKLEEQKRISIVFRVLQRLWTVHNSLLTEYTKQEQYLLSQMFILEHHHHHH,not soluble
18,MRLQTVKHFLEPVLEPLIRKVVKEEVELALGKHLAGIKWICEKETHPLESRNLQLKFLNNLSLPVFTSARIEGDEGQAIRVGLIDPSTGQIFSSGPASSAKLEVFVVEGDFNSVSDWTDEDIRNNIVREREGKKPLLNGNVFAVLNDGIGVMDEISFTDNSSWTRSRKFRLGVRIVDQFDYVKIREAITESFVVRDHRGELYKKHHPPSLFDEVWRLEKIGKDGAFHRRLNLSNINTVKDFLTHFHLNSSKLRQVLGTGMSSKMWEITLDHARSCVLDSSVHVYQAPGFQKKTAVVFNVVAQVLGLLVDFQYIPAEKLSEIEKALILSVYIFDLAQAEVMVIDALSHLNEVISYDDEVSMMRNVLNAPASQGSVAGIDYSGLSLTSLDGYGFVSSLHNTAECSGKHSDDVDMEVTPHGLYEDYDNLWNCSHILGLEEPQSELQSALDDFMSQKNASVGGKAHSKRWTKLFSVSRWLSVFKYVKLGKI,soluble
19,NKNFSWNVNFNLTHFKNKVLELSPELNGQLIDGARIYREDESMYQLYLPKYVGVDSETGESLWALVTPDENGNTVTKSYSVASENRFASGDILPKVYGGFGTSVTAYGFDLSVSFAYQLGGRILDYTYQGLMDVAATGSALHKDMLKAWTPENKNTDVPRMNINDQYTNRLTDRFLTSSDYLSLQNITLGYTLPKSLTRKMQIDGVRVFFVADNVALLTARKGLDPRQGYVAADNVYSPIRTISGGISLNF,not soluble
20,MGSDKIHHHHHHMMKKIEEARTFISERTNLSPDILIILGSGFGPFIEKVEDPVIIDYKDIPHFPQPTVEGHSGKLVFGRISDKPVMIMAGRFHLYEGHDPATVAFPVYLAKYVGVKGVVVTNAAGAINPEFKPGEIILVRDIINFMFRNPLRGPNDEKIGPRFPDMSSVVDPEWARKIQERLSLKEGVYIGVLGPSYETPAEIRVFEKLGADLVGMSTVPEVIAAKHCGLKVVVFSCVTNMAAGITHGRLSHEEVVRTTKMAQGKIEKALTTAVEVF,soluble
21,MAHHHHHHMKLMLKKKKKGRKRKRSYYKEIESLFWTAEDYNFDKDKQYLENIDKNMLVKLFELICFYSLKDLHVYEEQALITSKMLDIIQIPEGRAFYGFQMCMENIHDEVYACIFETYIPDSKQKRVIINKVIELDSVLKKQKWLTEIFESNIPYYNKLVLLYISKVLFNGTLNILIGYCKENSILPCLCNVHEKIHRDEYLHGDFSVMCCNHLVNKLKYEHVLDYFKMAVDLEYQFSLEMLELNVLKIKKEQVRAFLEYLTDTMLTNLKYPKHYNSKYPFSWPEFTKIIVNENGKEETVKKGENVYGEKQILFDEDF,not soluble
22,MGHHHHHHSHMVTQFKEKNESLQYETSSPTVQLKIPQLRVSSVSKSQPDGSGLLDVMYQVSKTSSVLEGSALQKLKNILPKQNKIECSGPVTHSSVDSYFLHGDLSPLCLNSKNGTVDGTSENTEDGLDRKDSKQPRKKRGRYRQYDHEIMEEAIAMVMSGKMSVSKAQGIYGVPHSTLEYKVKERSGTLKTPPKKKLRLPDTGLYNMTDSGTGSCKNSSKPV,soluble

# From the DeepSol protein solubility set
